{"source": "the DeepSol protein solubility set"}
{"test": "soluble on expression in E. coli; label from the status in PepcDB or PDB records"}
{"sequence": "MIILDNSIQTKKRTDSLSKLITVNTLGPEGTSSEYAAKHFISNFTLLQGLNSKLSLHDTFESCIERTLQSPLEYTIVPHAYDGIKHFYMRPDLQLLQIFRCDTPMYGLAVRPDFEFRDDMLDTSVIVSHPSPINLIKYFTRKDVRFKLVNSTSQAARKVKEGLYDIALTNELARQKYGLTFVKTFKSIPMSWSLFGKGDVDDENLEHHHHHH", "soluble on expression in E. coli": "not soluble"}
{"sequence": "MIIMYAIGIGDNKEEVLKAYEKLKEEGIEVELIDNPKLLVDKLLDGEIDGAVRGSLSSSKVILYLRERIGKFYRASILKNPFTNGIFLLSPVGIDDISEDKNERIKDKIRIIEFASNFLKNYNIKAKVAVLSGGRLGDLGRNKVVDETIYEAEEIVEHFKGNVDIIHNGILIEEYLKDGYNIIIAVDGITGNLIFRCLGLICKIPGYGAVILSDKNVNFIDTSRNANWERYYNAIKFLIGGDFG", "soluble on expression in E. coli": "soluble"}
{"sequence": "MIIRNVRILICMNTIYYEAHNNLYLNLTNRCSADCIFCIRNFADGVYGYNLRLSKEPSTEEIIEALEGLDLSKYREIVFTGLGEPTLRLDVVLAVTRWLKNQGLRVRLDTNGHAALINPKLDVIAELKKAGLDSVSVSLNAESEEKYNKLCRPVHKNAYRAMLDFVRGAKEAGISTRVTVVKIPEIDVEKCRKVSEELGSDFHIRLLSEAASQEIRE", "soluble on expression in E. coli": "not soluble"}
{"sequence": "MIKGTGHMIVNIANDRGMSIDSIRKTIKESVLIAYKKYFGSNENAFIKFDDDTGDLSVYAKKKIVKEVKDSLLEILEKDISKENIVEGDYAYIEINPKVFDRLSIQVAKQRTKNDLQGIEDNEILSEFKSKLNKVVIGYVQQNRNGDLYVNLGNTDGIIPKKYQSPLEHHHHHH", "soluble on expression in E. coli": "not soluble"}
{"sequence": "MIKHESSQPLRVAVAQCRIDWEDKHANLRRMERLAEETAGMADVLFFPEMMTTGFSMNVQALAEPFEEGETIMSLKRVTARHGLALSATMAVRENGKFYNRAYFVTPEGEVFHQDKRHLFRVGGEHEVMTPAQERRIFNYRGWKIFIIPCYDLRFPVWCTNTDLEYDLLVCMANWPEPRRAVWQTLLQARAMENYAYVCGINRVGEDGIGLRYTGDSAILSPRGEYLATCAEGEEKVLYHTLDKGAMQRFRDKFPAWMDMDSFVINYDTDLHP", "soluble on expression in E. coli": "not soluble"}
{"sequence": "MIKKITISDLIRMGDEKEREWFMFHAEVERIFNDTEIVGIKYQATITYVIGELDEDVLNTVFESNWNKTAEVLKKHEIEVEDIKIDKNEKKVEIKLKTSGIVYREGLFEFEDIKELLKDVLARKIEEAWISVLQEHGYILEHHHHHH", "soluble on expression in E. coli": "soluble"}
{"sequence": "MIKRVFIDTDIILDVALAREPFFTASKIILAMAENNIIIGNISSNCVANIYYILRKSGGDNKARKFILNIVKYITVIVINHRNVLDSLRSKFSDFEDALQHSSAVENQCEYIITRNIEDYKNAKIKVLLPEEFIGMFLEHHHHHH", "soluble on expression in E. coli": "not soluble"}
{"sequence": "MIKVAIIGAENVGKSTLMNALLGGKFSEVSETPGTTKGIIKRAFGKIKLPKTMKNPFGGADELVLIDTAGLFDPEKEIRGKVLSEEKFKELIKEIVNADVIIHMIDATKGLHRGMEKLHYMLKFRYEKPIIVVINKIDLVSREELERLRELVKKRLEQEPILLSLVTYEGFNELLKALTYYAQYVE", "soluble on expression in E. coli": "soluble"}
{"sequence": "MILAVLQARMGSSRLPGKSMATLQGEPMIVRQLERLRGARCLSKIIVATSQDPADDALAGFLVSRGNTVHRGAGADILARIARCADAISAVSHVVRLKGDAPFMDPGVVDDAVRMALASGADYTSNRVHRTYPAGLEVEVIKAGVLRQAAAEERDPTARISPTAAIRNQPERWRQAHLRAARDCSRLDWRVKTAADLAFARSVYDALHPGDPDFRMGDVLDLLENRQDIARFAALEHHHHHH", "soluble on expression in E. coli": "not soluble"}
{"sequence": "MILLKSEHGGKRKEMRQDDLMGPNHFSLRIMYKIIIYTYPVSLYAVKELNLSKTFSISALGILNSNSNRSPAKKQTFFSACVAKSYSSFFISICILDLASHL", "soluble on expression in E. coli": "soluble"}
{"sequence": "MILMAIGLLMGSYYAVEWYKGKSSAQELTNEEIKSFKNIQHNQLPYETLVTSQVPSSQTEHKEGEKVAMLNIPKLKKKFSIYWGADDATLKKGVGMFVSDVTTTPSGGGHTVLSGHRDTVFTDLGQLKEKDTLVLEYDNKTYTYEIQKIWITHADDRTVIIKKEEPILTLTTCYPFDYIGDAPDRYIIEAKLTGSYSK", "soluble on expression in E. coli": "not soluble"}
{"sequence": "MINEHYIPQAVILANGEYPAHELPLRLLAEAQFVVCCDGAANEYISRGHTPDVIIGDGDSLLPEYKKRFSSIILQISDQETNDQTKAVHYLQSKGIRKIAIVGATGKREDHTLGNISLLVEYMRSGMEVRTVTDYGTFIPVSDTQSFASYPGQQVSIINFGAKGLKAEGLFYPLSDFTNWWQGTLNEAIADEFTIHCTGEYLVFLAY", "soluble on expression in E. coli": "soluble"}
{"sequence": "MINIETPTYYTATKKYELSFPSLETDLDADVVVIGGGFSGINTALELAEHGITDIVVLEARHLGFGGTGRNGGQIMAGIGHDLEKIRKDVGEDGLRAIFEISDLGADIIKGRIEKYAIDADFCHGYGYMGFNARQAKTLQAWEKEFRSLGSPHEIRYLHGAEVRQIIGSDAYGSALLHMGGGHVHSLNLLLGEAKALAGLGARIFEYSPALEVQYGERIRVRTAKGSVTANKLLWACDSFLNRLEPELHRTTINTYAFQMMTEPLPDELIQRISPIRGAYSDIRPVIDYYRVTNENRLLFGAATPFVERIPGDLKAWNRKLMLKIFPYLEHVRIDLAWGGPMACSANLFPQIGSLSGRPNAFFVQGYSGFGVTPSHIVCKVLAEGMSEGSARYDLLSSVRRIPIHGKDHFRPLLLSAGKTWHQLSGYWNGRR", "soluble on expression in E. coli": "not soluble"}
{"sequence": "MINSSEGKSDNKIIEKATQILSKYPLCDSCLGRCFARLGYGLENKERGRAIKISLMLILDEKIKNHEIGDLSSIKRIMENLGPIAEKWYKLYFSSEFHSHPCYLCQNKIEDIKEDFSDKAFKLLSGLGVKSYVLGVELDEETKKKESKIIEEFTLMYYESIKHEIKREVGKTLSKRGYPPNMDNPEVEIVYRLSDLQVFIISKNIRTFYVYNRLNRNLPISSWFSKQGNEGLNTLLQRKIVFAFSEPTTVRILADYPIVIENEGRDKIDVGGYYIFKVMTVGKKELQAISAAKPTMRKYRVTVYSTSSLSDAIRVYGNIYDLYIDAKSFSELNEKLSKLKSQYEIIVLSVDLIDVKGRIKDIIENYLKSFLEHHHHHH", "soluble on expression in E. coli": "not soluble"}
{"sequence": "MIPVKFKGATFGRLVKLEFEILRLGELKIDDISEFNTKDIKLEIRATSSGIKLIGVWEGDISEVGEAIKRALDESMKLRERLLRKMRNKVERIRKTLTEMGFSEESIGYGDAIRFTKRIGEYEVAIVVSSRDDIVRVEVYGGNKKLLAPELEAFFESVDIEELEIYDVDEDGREERVVINLELPKTDEKPEKRIIEAVKVLENILMA", "soluble on expression in E. coli": "soluble"}
{"sequence": "MIQFKDSYKHYGANGREVTALQPLNLEIRAGEVFGIIGHSGAGKSTMLRMINRLEEPSGGHLLINGQDITVLDRMGLRALRRQIGMIFQHFNLLSSYTVAGNVAFPLKLTGASDAKINARVAELLAWVGLEAHANTYPAQLSGGQKQRVGIARALATRPQILLCDEVTSALDPQTTSTVLQLLARINRELGLTIVLITHEMDVIRRICDRVAVLDTGRLVEIGLVTDVFLHPQHPTTRSFVMETEHIDTSALDQDFALVKGRIVRLTFIGTDTYLPLLGRVARETGVDYNILSGRIDRIKETPYGQLTVALSGGDPVAAQAAFAAAGIHIEELRA", "soluble on expression in E. coli": "not soluble"}
{"sequence": "MIQMSSNDSSEVIRQCLQVLESITSDSSVPRNIRRSVNEIMDILNNESEPLFLRAASSISILEDISNDPNLPLHTRTLIWNLSSQLETIPVDE", "soluble on expression in E. coli": "not soluble"}
{"sequence": "MIRAVFFDFVGTLLSVEGEAKTHLKIMEEVLGDYPLNPKTLLDEYEKLTREAFSNYAGKPYRPIRDIEEEVMRKLAEKYGFKYPENFWEIHLRMHQRYGELYPEVVEVLKSLKGKYHVGMITDSDTEYLMAHLDALGIKDLFDSITTSEEAGFFKPHPRIFELALKKAGVKGEEAVYVGDNPVKDCGGSKNLGMTSILLDRKGEKREFWDKCDFIVSDLREVIKIVDELNGQ", "soluble on expression in E. coli": "soluble"}
{"sequence": "MIRFARPKPIIDSVSYNLLQKCYASGTPKGKSKLKTGQSLKRNKLTIKKGGGNGGGRGGDEVDKGKGRISDQCINAPCPVRYLRPKEREREARREKLGLISKARQKEIDFQKKGGSFTMGVTTAPMRIGTPGLDYISLGIFTEDELPKYKVTVEDGIRLAKEYSRVLMREHRARRVAEISLMKMRNAAVEALPENLKKAALVRDLTPFPVSRGTVRLLHLLKGIWRGL", "soluble on expression in E. coli": "soluble"}
